The target of data set [1] is K63-linked diUb covalently coupled to AlexaFluor-488 (UniProt P0CG48). The experiment in a line: fluorescence polarisation; complex titrated against 10 nM AlexaFluor-488 K63-linked diUb tracer. On the technique in general: Polarisation of emitted light reports the rotation of a fluorescent probe.
Data set [2] deals with Cf BRCC36–KIAA0157 binary complex (C. floridanus) (UniProt E2AXC7). Briefly: SEC-MALS; complexes and subcomplexes purified from insect cells; size exclusion chromatography coupled to multi-angle light scattering (Figures S1B-E and S8E-G). For orientation: In gel filtration, larger molecules generally elute earlier.
Assay in data set [3]: as above
The target in data set [4] is CfBRCC36(Ala205Asp + Ile212Asp)–KIAA0157ΔC heterodimer (C. floridanus). The description is as above.
Data set [5] deals with CfBRCC36(Ala205Asp)–KIAA0157ΔC heterodimer (C. floridanus).
The target of data set [6] is CfBRCC36(Ile212Asp)–KIAA0157ΔC heterodimer (C. floridanus).
The target of data set [7] is CfBRCC36–KIAA0157ΔC heterodimer (C. floridanus). Briefly: SEC-MALS; complexes and subcomplexes purified from insect cells; size exclusion chromatography coupled to multi-angle light scattering (Figures S1B-E and S8E-G).
Data set [8] concerns the target unlabeled K63 linked diUb (UniProt P0CG48).
Data set [9] has as its target CfBRCC36–KIAA0157–BRCC45 triple complex (C. floridanus) (UniProt E2AXC7). The experiment in a line: SEC-MALS; complexes and subcomplexes purified from insect cells; size exclusion chromatography coupled to multi-angle light scattering (Figures S1B-E and S8E-G).
The target of data set [10] is H. Sapiens ARISC (BRCC36–Abraxas–BRCC45–MERIT40) complex (H. sapiens) (UniProt P46736). The data set is described as above.

For “BRCC36 (E30A+A205D+I212D)-KIAA0157ΔC complex (from UniProt E2AXC7 1-253)”, the Kd in data set [1] amounted to 2200 nM.

Turning to “BRCC36(E30A)-KIAA0157ΔC complex (from UniProt E2AXC7 1-253)”, the equilibrium dissociation constant (Kd) in data set [1] was determined as 2400 nM. In data set [2], “Cf BRCC36–KIAA0157 binary complex (from UniProt E2AXC7 1-253)” yielded a stoichiometry N of 2. For the substance “CfBRCC36(Ala205Asp + Ile212Asp)–KIAA0157ΔC heterodimer”, the “percent eluting as a monomer of heterodimers” value in [3] stood at 85% major peak.

For “CfBRCC36(Ala205Asp + Ile212Asp)–KIAA0157ΔC heterodimer (complex)”, the percent eluting as super dimers in [4] is 15%. Regarding “CfBRCC36(Ala205Asp)–KIAA0157ΔC heterodimer”, the “percent eluting as monomers of heterodimers” value in data set [3] was 70% and 36% of proteins, respectively, eluting as monomers of heterodimers. With “CfBRCC36(Ala205Asp)–KIAA0157ΔC heterodimer (complex)”, in [5], the cleavage of a K63-linked diUb fluorigenic substrate in vitro, at near saturating substrate concentrations (>10 μM diUb) (fold less active than WT) is 10. Consider “CfBRCC36(Ile212Asp)–KIAA0157ΔC heterodimer”, for which the “percent eluting as monomers of heterodimers” value in data set [3] is 70% and 36% of proteins, respectively, eluting as monomers of heterodimers. “CfBRCC36(Ile212Asp)–KIAA0157ΔC heterodimer (complex)” registered a cleavage of a K63-linked diUb fluorigenic substrate in vitro, at near saturating substrate concentrations (>10 μM diUb) (fold less active than WT) in data set [6] of 10. “CfBRCC36–KIAA0157ΔC heterodimer (complex)”: the stoichiometry N in [7] amounted to 2. Moreover, in data set [8], the Km, Michaelis-Menten kinetic analysis for cleavage of K63 diUb (Figure 6B) was 4.2 µM. In [9], “CfBRCC36–KIAA0157–BRCC45 triple complex (from UniProt E2AXC7 1-253)” gave a stoichiometry N of 2. In data set [10], “H. Sapiens ARISC (BRCC36–Abraxas–BRCC45–MERIT40) complex (from UniProt P46736 1-316; Q6UWZ7 1-409; Q9NXR7 1-383; Q9NWV8 1-329)” gave a stoichiometry N of 2.

As usually defined, the Kd is the free concentration of one partner at which half of the binding sites on the other are occupied at equilibrium, for simple one-to-one binding. A high value points to a looser complex. A word on the stoichiometry N: it is a count of units in the complex or per binding partner.

Values taken from PMC4579573.
